Laboratory results published in paper PMC4599966.

How the values were obtained:
[1] = biological target: LC3B (two-hybrid bait) (UniProt Q9GZQ8); experiment: mammalian 2-hybrid assay; settings: CHOK.1 cells, LC3B as bait, read off a plot
[2] = biological target: LC3C (two-hybrid bait) (UniProt Q9BXW4); experiment: mammalian 2-hybrid assay; settings: CHOK.1 cells; LC3C as bait; parent: est. 79; read off a plot
[3] = biological target: TAX1BP1 zinc finger domain (human) (UniProt Q86VP1); experiment: NMR titration; 1H/15N HSQC of 15N-labelled TAX1BP1 zinc fingers (P0 150 μM) with increasing unlabelled ubiquitin, and the reciprocal titration of 15N-labelled ubiquitin; PBS, 10 mM β-mercaptoethanol, 20°C; shift changes of peaks of each zinc finger fitted to a single site-binding model

UniProt Q9BXW4, sequence (Q9BXW4 whole entry, the tested form may be a part): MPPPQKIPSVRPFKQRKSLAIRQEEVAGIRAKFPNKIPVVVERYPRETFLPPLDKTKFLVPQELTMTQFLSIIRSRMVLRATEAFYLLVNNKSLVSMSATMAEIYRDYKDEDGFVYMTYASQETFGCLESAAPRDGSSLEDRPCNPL

## TAX1BP1 full-length wild-type (two-hybrid prey) (from UniProt Q86VP1) V144S
[1]; parent: est. 85
  response: 20
[1]; parent: est. 98
  response: 27
[2]
  response: 34

## mono-ubiquitin (from UniProt P0CG48 1-76) (natural protein)
[3]
  KD, site ZF1 (N-terminal module): 70 µM
  KD, site ZF2 (C-terminal module): 7 µM
